The text below walks through data of publication PMC10786891, “Massively parallel profiling of RNA-targeting CRISPR-Cas13d”.

What is called Kd is the concentration at which binding is half-saturated.

To fix the notation:
B1: target 1 insG 3' of 10,insG 3' of 4 (mixed)
RNA 1: CACCCGUGCAAAAAUGCAGGGGUCUAAAACUGAGCGGAUAACCUCUCUAUGG
RNA 2: GGGAAUGGAUCCACAUCUACGAAUUCGUACCAUAGAGAGGUUGAUCCGCGUCACCGAGAUCGGAAGAGCACACGU
B2: target 1 insC 3' of 5,insC 3' of 1 (mixed)
RNA 1: CACCCGUGCAAAAAUGCAGGGGUCUAAAACUGAGCGGAUAACCUCUCUAUGG
RNA 2: GGGAAUGGAUCCACAUCUACGAAUUCGUACCAUAGAGAGGUUAUCCGCCUCACCCGAGAUCGGAAGAGCACACGU
B3: target 1 insC 3' of 20,insG 3' of 9 (mixed)
RNA 1: CACCCGUGCAAAAAUGCAGGGGUCUAAAACUGAGCGGAUAACCUCUCUAUGG
RNA 2: GGGAAUGGAUCCACAUCUACGAAUUCGUACCACUAGAGAGGUUAGUCCGCUCACCGAGAUCGGAAGAGCACACGU
B4: target 1 G5C,C7A (mixed)
RNA 1: CACCCGUGCAAAAAUGCAGGGGUCUAAAACUGAGCGGAUAACCUCUCUAUGG
RNA 2: GGGAAUGGAUCCACAUCUACGAAUUCGUACCAUAGAGAGGUUAUACCCUCACCGAGAUCGGAAGAGCACACGU
B5: target 1 A18G,U19A (mixed)
RNA 1: CACCCGUGCAAAAAUGCAGGGGUCUAAAACUGAGCGGAUAACCUCUCUAUGG
RNA 2: GGGAAUGGAUCCACAUCUACGAAUUCGUACCAAGGAGAGGUUAUCCGCUCACCGAGAUCGGAAGAGCACACGU
B6: target 1 C6A,A16U (mixed)
RNA 1: CACCCGUGCAAAAAUGCAGGGGUCUAAAACUGAGCGGAUAACCUCUCUAUGG
RNA 2: GGGAAUGGAUCCACAUCUACGAAUUCGUACCAUAGUGAGGUUAUCAGCUCACCGAGAUCGGAAGAGCACACGU
B7: target 1 C2U,C22U (mixed)
RNA 1: CACCCGUGCAAAAAUGCAGGGGUCUAAAACUGAGCGGAUAACCUCUCUAUGG
RNA 2: GGGAAUGGAUCCACAUCUACGAAUUCGUAUCAUAGAGAGGUUAUCCGCUUACCGAGAUCGGAAGAGCACACGU
B8: target 1 C7G,C22U (mixed)
RNA 1: CACCCGUGCAAAAAUGCAGGGGUCUAAAACUGAGCGGAUAACCUCUCUAUGG
RNA 2: GGGAAUGGAUCCACAUCUACGAAUUCGUAUCAUAGAGAGGUUAUGCGCUCACCGAGAUCGGAAGAGCACACGU
B9: target 1 insG 3' of 22,insA 3' of 15 (mixed)
RNA 1: CACCCGUGCAAAAAUGCAGGGGUCUAAAACUGAGCGGAUAACCUCUCUAUGG
RNA 2: GGGAAUGGAUCCACAUCUACGAAUUCGUACGCAUAGAGAAGGUUAUCCGCUCACCGAGAUCGGAAGAGCACACGU
B10: target 1 insA 3' of 17,insU 3' of 15 (mixed)
RNA 1: CACCCGUGCAAAAAUGCAGGGGUCUAAAACUGAGCGGAUAACCUCUCUAUGG
RNA 2: GGGAAUGGAUCCACAUCUACGAAUUCGUACCAUAGAAGUAGGUUAUCCGCUCACCGAGAUCGGAAGAGCACACGU
B11: target 1 insC 3' of 10 (mixed)
RNA 1: CACCCGUGCAAAAAUGCAGGGGUCUAAAACUGAGCGGAUAACCUCUCUAUGG
RNA 2: GGGAAUGGAUCCACAUCUACGAAUUCGUACCAUAGAGAGGUUCAUCCGCUCACCGAGAUCGGAAGAGCACACGU
B12: target 1 U8A,A9G (mixed)
RNA 1: CACCCGUGCAAAAAUGCAGGGGUCUAAAACUGAGCGGAUAACCUCUCUAUGG
RNA 2: GGGAAUGGAUCCACAUCUACGAAUUCGUACCAUAGAGAGGUUGACCGCUCACCGAGAUCGGAAGAGCACACGU
B13: target 1 A9U,G17U (mixed)
RNA 1: CACCCGUGCAAAAAUGCAGGGGUCUAAAACUGAGCGGAUAACCUCUCUAUGG
RNA 2: GGGAAUGGAUCCACAUCUACGAAUUCGUACCAUAUAGAGGUUUUCCGCUCACCGAGAUCGGAAGAGCACACGU
B14: target 1 A1C,U19G (mixed)
RNA 1: CACCCGUGCAAAAAUGCAGGGGUCUAAAACUGAGCGGAUAACCUCUCUAUGG
RNA 2: GGGAAUGGAUCCACAUCUACGAAUUCGUACCAGAGAGAGGUUAUCCGCUCCCCGAGAUCGGAAGAGCACACGU
B15: target 1 insU 3' of 14,insG 3' of 14 (mixed)
RNA 1: CACCCGUGCAAAAAUGCAGGGGUCUAAAACUGAGCGGAUAACCUCUCUAUGG
RNA 2: GGGAAUGGAUCCACAUCUACGAAUUCGUACCAUAGAGAUGGGUUAUCCGCUCACCGAGAUCGGAAGAGCACACGU
B16: target 1 insA 3' of 22,insG 3' of 3 (mixed)
RNA 1: CACCCGUGCAAAAAUGCAGGGGUCUAAAACUGAGCGGAUAACCUCUCUAUGG
RNA 2: GGGAAUGGAUCCACAUCUACGAAUUCGUACACAUAGAGAGGUUAUCCGCUGCACCGAGAUCGGAAGAGCACACGU
B17: target 1 A1G,C2A (mixed)
RNA 1: CACCCGUGCAAAAAUGCAGGGGUCUAAAACUGAGCGGAUAACCUCUCUAUGG
RNA 2: GGGAAUGGAUCCACAUCUACGAAUUCGUACCAUAGAGAGGUUAUCCGCUAGCCGAGAUCGGAAGAGCACACGU
B18: target 1 insG 3' of 16,insA 3' of 7 (mixed)
RNA 1: CACCCGUGCAAAAAUGCAGGGGUCUAAAACUGAGCGGAUAACCUCUCUAUGG
RNA 2: GGGAAUGGAUCCACAUCUACGAAUUCGUACCAUAGAGGAGGUUAUCACGCUCACCGAGAUCGGAAGAGCACACGU
B19: target 1 insC 3' of 5,insU 3' of 1 (mixed)
RNA 1: CACCCGUGCAAAAAUGCAGGGGUCUAAAACUGAGCGGAUAACCUCUCUAUGG
RNA 2: GGGAAUGGAUCCACAUCUACGAAUUCGUACCAUAGAGAGGUUAUCCGCCUCAUCCGAGAUCGGAAGAGCACACGU
B20: target 1 insC 3' of 5,insG 3' of 1 (mixed)
RNA 1: CACCCGUGCAAAAAUGCAGGGGUCUAAAACUGAGCGGAUAACCUCUCUAUGG
RNA 2: GGGAAUGGAUCCACAUCUACGAAUUCGUACCAUAGAGAGGUUAUCCGCCUCAGCCGAGAUCGGAAGAGCACACGU
B21: target 1 insC 3' of 18,insA 3' of 11 (mixed)
RNA 1: CACCCGUGCAAAAAUGCAGGGGUCUAAAACUGAGCGGAUAACCUCUCUAUGG
RNA 2: GGGAAUGGAUCCACAUCUACGAAUUCGUACCAUACGAGAGGUAUAUCCGCUCACCGAGAUCGGAAGAGCACACGU
B22: target 1 C6U,G15A (mixed)
RNA 1: CACCCGUGCAAAAAUGCAGGGGUCUAAAACUGAGCGGAUAACCUCUCUAUGG
RNA 2: GGGAAUGGAUCCACAUCUACGAAUUCGUACCAUAGAAAGGUUAUCUGCUCACCGAGAUCGGAAGAGCACACGU
B23: target 1 C6U,A18G (mixed)
RNA 1: CACCCGUGCAAAAAUGCAGGGGUCUAAAACUGAGCGGAUAACCUCUCUAUGG
RNA 2: GGGAAUGGAUCCACAUCUACGAAUUCGUACCAUGGAGAGGUUAUCUGCUCACCGAGAUCGGAAGAGCACACGU
B24: target 1 insA 3' of 13,insA 3' of 8 (mixed)
RNA 1: CACCCGUGCAAAAAUGCAGGGGUCUAAAACUGAGCGGAUAACCUCUCUAUGG
RNA 2: GGGAAUGGAUCCACAUCUACGAAUUCGUACCAUAGAGAGAGUUAUACCGCUCACCGAGAUCGGAAGAGCACACGU
B25: target 1 U19G (mixed)
RNA 1: CACCCGUGCAAAAAUGCAGGGGUCUAAAACUGAGCGGAUAACCUCUCUAUGG
RNA 2: GGGAAUGGAUCCACAUCUACGAAUUCGUACCAGAGAGAGGUUAUCCGCUCACCGAGAUCGGAAGAGCACACGU
B26: target 1 insU 3' of 21,insC 3' of 8 (mixed)
RNA 1: CACCCGUGCAAAAAUGCAGGGGUCUAAAACUGAGCGGAUAACCUCUCUAUGG
RNA 2: GGGAAUGGAUCCACAUCUACGAAUUCGUACCUAUAGAGAGGUUAUCCCGCUCACCGAGAUCGGAAGAGCACACGU
B27: target 1 insA 3' of 13,insG 3' of 4 (mixed)
RNA 1: CACCCGUGCAAAAAUGCAGGGGUCUAAAACUGAGCGGAUAACCUCUCUAUGG
RNA 2: GGGAAUGGAUCCACAUCUACGAAUUCGUACCAUAGAGAGAGUUAUCCGCGUCACCGAGAUCGGAAGAGCACACGU

The series deals with T1, EsCas13d, nuclease-dead (Eubacterium siraeum, UniProt B0MS50, R295A;H300A;R849A;H854A).
T1 sequence: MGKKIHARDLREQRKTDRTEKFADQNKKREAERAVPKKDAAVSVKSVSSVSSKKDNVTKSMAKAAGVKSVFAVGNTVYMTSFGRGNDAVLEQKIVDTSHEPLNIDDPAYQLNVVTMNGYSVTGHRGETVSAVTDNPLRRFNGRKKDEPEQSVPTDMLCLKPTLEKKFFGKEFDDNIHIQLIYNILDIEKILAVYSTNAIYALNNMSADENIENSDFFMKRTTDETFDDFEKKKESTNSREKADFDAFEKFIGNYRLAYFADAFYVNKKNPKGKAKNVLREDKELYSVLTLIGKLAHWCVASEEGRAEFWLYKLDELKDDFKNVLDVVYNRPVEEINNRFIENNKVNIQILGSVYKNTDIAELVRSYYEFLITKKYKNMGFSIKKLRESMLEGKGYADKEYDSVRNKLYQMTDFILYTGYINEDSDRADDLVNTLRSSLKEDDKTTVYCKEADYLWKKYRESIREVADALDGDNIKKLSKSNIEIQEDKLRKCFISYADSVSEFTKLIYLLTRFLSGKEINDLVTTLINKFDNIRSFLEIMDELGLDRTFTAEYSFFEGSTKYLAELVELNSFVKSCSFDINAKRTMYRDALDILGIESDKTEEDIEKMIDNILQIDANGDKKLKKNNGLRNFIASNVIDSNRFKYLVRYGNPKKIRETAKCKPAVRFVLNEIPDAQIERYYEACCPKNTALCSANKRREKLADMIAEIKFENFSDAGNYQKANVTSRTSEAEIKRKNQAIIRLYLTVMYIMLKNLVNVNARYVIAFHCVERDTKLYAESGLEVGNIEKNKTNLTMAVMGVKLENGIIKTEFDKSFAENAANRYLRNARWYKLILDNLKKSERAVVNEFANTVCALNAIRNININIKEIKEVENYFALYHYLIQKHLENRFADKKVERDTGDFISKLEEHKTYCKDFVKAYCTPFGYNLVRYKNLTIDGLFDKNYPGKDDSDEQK
As to the kind of experiment: crRNA (strand 1, pre-loaded); Mg2+; 40 mM Tris-HCl pH 7.5, 150 mM NaCl, 6 mM MgCl2, 1 mM DTT, 0.1% Tween-20, 0.2 mg/ml BSA; 25 C; 10 min per concentration, then washed. Particulars: tags: His6-TwinStrep-SUMO cleaved; N-terminal SNAP kept (SNAP-Surface 488); label: 3' end held by stalled T7 RNA polymerase.
The molecule B1 returned an equilibrium dissociation constant (Kd) of 35 ± 7 nM. Consider B2, for which the Kd was 19.6 ± 3.4 nM. In the case of B3, the affinity, expressed as Kd, was 10.2 ± 0.8 nM.

For the molecule B4, the Kd is 21.2 ± 1.4 nM. B5: binding was characterised by a dissociation constant (Kd) of 98 ± 25 nM. Molecule B6 returned a Kd of 44 ± 4 nM.

B7 came in with a Kd of 26 ± 6 nM. Compared with the last molecule, the Kd is about 1.7-fold lower. As to B8, the Kd was found to be 13.7 ± 0.7 nM. For B9, the Kd is 17.2 ± 1.6 nM. B10 gave a Kd of 12 ± 4 nM. In the case of B11, the Kd stood at 15.5 ± 0.9 nM. With B12, the Kd is 19.3 ± 1 nM. The Kd values of the last two molecules are within 1.5-fold of each other. As to B13, the affinity, expressed as Kd, was 30 ± 4 nM. In the case of B14, the Kd is about 80 nM. In turn, B15 had a Kd of 44 ± 10 nM.

B16 registered a dissociation constant (Kd) of 10.8 ± 0.8 nM. Molecule B17 displayed a dissociation constant (Kd) of 5.2 ± 0.32 nM. This Kd is about 2.1-fold lower than that of the molecule before. Molecule B18 gave a dissociation constant Kd of 14.5 ± 0.9 nM. For B19, the affinity, expressed as Kd, was 9.61 ± 0.26 nM.

On to B20, for which binding was characterised by a dissociation constant (Kd) of 8.4 ± 0.6 nM. As to B21, binding was put at a Kd of 74 ± 9 nM.

B22 showed a Kd of 11.9 ± 0.5 nM.

Consider B23, for which the Kd is 54 ± 18 nM. This Kd lies about 4.5-fold higher than the previous one. Take B24: binding was characterised by a dissociation constant (Kd) of 4.8 ± 0.23 nM.

With B25, the Kd came to 48 ± 5 nM. Compared with the last molecule, the Kd is about 10-fold higher. Turning to B26, the Kd came out at 71 ± 15 nM.

B27 returned a Kd of 3.04 ± 0.19 nM. Compared with the last molecule, the Kd is about 23-fold lower.
